This test deals with T1, CD4抗原 (UniProt P01730 26-458, limits assumed).
T1 construct: whole, on cells; also called 细胞表面的CD4抗原
Briefly: flow cytometry on Nalm6-CD4 cells; antibody from 4 μg/mL in 4-fold steps, 10 concentrations; APC goat anti-mouse IgG secondary. In general terms: Flow cytometry measures light scatter and fluorescence of single cells or particles in a stream.

B1: 抗CD4-1抗体 (antibody, V domains shown)
VH: EVQLQQSGPELVKPGDSVKMSCKASGYTFTDYFMDWVKQSHGKSLEWIGYIYPNNGGTNNNQKFKGKATLTVDKSSSTAYMELHSLTSEDSAVYYCARRGYDEGFAYWGQGTLVTVSS
VL: DILLTQSPAILSVSPGERVSFSCRASQIIGTSILWYQQRTNGSPRLLIKYASESISGIPSRFSGSGSGTDFTLSINSVESEDIADYYCQQSNTWPFTFGGGTKLEMK
notes: Detected with a goat anti-mouse IgG secondary antibody; also called 抗CD4抗体; 抗CD4(CD4-1)抗体
B1 came in with an EC50 of 0.101 µg/mL.

For orientation: EC50 means the concentration giving half of the maximal effect. The low end stands for a more potent agent, the high end for a less potent agent.

The values above are taken from patent CN116063501A (HUADAO SHANGHAI BIOMEDICAL CO LTD, dated 2023).
